Measurements taken from the supplement of paper PMC10567573.

B1: C1orf137 (parent)
chain: RQHHHQSSFPGSLPQETNLTLKVC

Variants of: B1
Test: protein stability index of a GFP-peptide fusion (GPS, HEK-293T) (PSI 1-6); higher = more stable
Conditions: c terminus: a fixed tail appended
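Also: lentivirally expressed fusions sorted by FACS into six bins by GFP to DsRed ratio, PSI derived from sequencing read proportions per bin multiplied by bin number.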

Protein stability index of substitutions, site by site:
Q2: D 3.06 | F 3.96 | C 2.04 | T 3.45 | P 2.77
V23: T 3.76 | Y 2.73 | G 4.43 | W 2.86 | A 3.78 | E 4.27 | L 3.03 | D 4.72
Q6: P 2.55 | K 3.15 | T 2.49 | R 4.03 | A 2.61 | Y 2.9 | S 3.25 | D 3.39 | F 2.3
P10: C 2.38 | W 1.99 | E 2.6 | A 3.24 | T 3.25
L13: F 2.78 | W 3.13 | P 3.42 | K 3.16 | E 3.23
C24: A 3.64 | I 1.9 | G 3.75 | P 3.51 | S 3.41 | N 3.7 | V 2.29 | L 3.74 | F 1.9 | M 2.44
Q15: L 2.19 | N 2.47 | D 3.26 | S 3.36 | R 2.54 | F 1.71 | I 2.53 | V 2.6 | W 2.29 | T 3.34 | C 2.56
H4: N 3.14 | L 3.13 | E 3.15 | K 3.26 | V 2.82 | M 2.37 | S 2.96 | D 3.56
L19: Y 2.95 | G 3.98 | W 4.19 | P 3.31 | H 4.14 | C 3.32
L21: G 4.36 | E 4.5 | I 2.41 | M 3.79 | T 4.54
F9: I 3.3 | H 3.64 | D 4.08 | V 3.46 | P 3.38 | Y 3.41 | S 3.16
N18: W 1.06 | D 3.83 | V 2.46 | C 1.96 | L 2.2 | Q 3.66 | F 2.55 | G 3.65
K22: Q 2.92 | P 3.53
P14: K 3.13 | T 2.71 | C 2.85 | Y 2.11 | W 1.62 | N 2.54 | R 2.4 | S 2.72
S12: F 2.41 | Y 2.27 | W 2.44 | C 2.37 | D 3.19
S7: G 3.18 | M 2.43 | V 2.89 | A 2.71 | I 2.77 | Y 2.54 | P 3.52 | T 3.34 | N 3.68 | L 2.79
R1: L 2.44 | F 1.63 | G 3.69 | C 1.97 | Y 2.07 | H 3.2
S8: H 2.45 | A 2.81 | C 2.67 | W 2 | P 2.71 | D 2.89
H3: Y 2.57 | V 3.09 | K 3.31 | L 2.34 | D 2.87 | P 2.77 | E 3.69 | S 3.36 | N 2.75 | C 2.54
T17: N 3.15 | F 2.49 | W 1.41 | R 3.28
T20: D 4.1 | G 3.23 | L 2.32 | S 3.29 | F 2.09 | P 3.62 | K 2.64 | R 3.36 | E 3.61 | H 2.48 | M 2.63
G11: F 2.28 | W 2.24 | Q 3.07 | E 4.03 | M 3.24 | S 2.9
H5: V 3.23 | G 2.81 | N 2.91
E16: N 2.8 | Q 2.57 | I 1.75 | F 2.28 | V 1.57 | T 2.69 | L 1.7 | G 2.39 | D 3.63
